Fewer inactive variants are shown than the library holds.
Legend:
biotinyl-Val-oxazolone = experiment: self-aminoacylation, catalytic enhancement (BVO) (fold over background); higher = more active; k-Seq, kA / k0A0; sequences stand for … in GGGAAUGGAUCCACAUCUACGAAUUC…UUCACUGCAGACUUGACGAAGCUG
Method in brief: (§1)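 Each biotinyl-aminoacyl-oxazolone, at 2–1250 μM, was incubated with mutagenized RNA pools (0.43 μM) carrying a 21-nt variable region. The 50 μL reactions contained HEPES/NaCl/KCl/MgCl2/CaCl2 buffer with 5% acetonitrile at pH 6.9–7.0 and ran for 90 minutes at room temperature. After streptavidin capture, RNA was measured by qPCR in triplicate and by Illumina sequencing, and catalytic enhancement was calculated as median kA over the uncatalyzed rate from a pseudo-first-order fit of per-sequence fraction reacted.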

biotinyl-Phe-oxazolone = experiment: self-aminoacylation, catalytic enhancement (BFO) (fold over background); higher = more active; k-Seq, kA / k0A0; sequences stand for … in GGGAAUGGAUCCACAUCUACGAAUUC…UUCACUGCAGACUUGACGAAGCUG
Method in brief: as §1

biotinyl-Ile-oxazolone = experiment: self-aminoacylation, catalytic enhancement (BIO) (fold over background); higher = more active; k-Seq, kA / k0A0; sequences stand for … in GGGAAUGGAUCCACAUCUACGAAUUC…UUCACUGCAGACUUGACGAAGCUG
Method in brief: as §1

biotinyl-Met-oxazolone = experiment: self-aminoacylation, catalytic enhancement (BMO) (fold over background); higher = more active; k-Seq, kA / k0A0; sequences stand for … in GGGAAUGGAUCCACAUCUACGAAUUC…UUCACUGCAGACUUGACGAAGCUG
Method in brief: as §1

biotinyl-Leu-oxazolone = experiment: self-aminoacylation, catalytic enhancement (BLO) (fold over background); higher = more active; k-Seq, kA / k0A0; sequences stand for … in GGGAAUGGAUCCACAUCUACGAAUUC…UUCACUGCAGACUUGACGAAGCUG
Method in brief: as §1

biotinyl-Trp-oxazolone = experiment: self-aminoacylation, catalytic enhancement (BWO) (fold over background); higher = more active; k-Seq, kA / k0A0; sequences stand for … in GGGAAUGGAUCCACAUCUACGAAUUC…UUCACUGCAGACUUGACGAAGCUG
Method in brief: as §1

Row | Sequence | self-aminoacylation (biotinyl-Val-oxazolone) | self-aminoacylation (biotinyl-Phe-oxazolone) | self-aminoacylation (biotinyl-Ile-oxazolone) | self-aminoacylation (biotinyl-Met-oxazolone) | self-aminoacylation (biotinyl-Leu-oxazolone) | self-aminoacylation (biotinyl-Trp-oxazolone)
1 | AAGUUUGCUAAUCCUCGCAAG [Fam3.1 aminoacylation ribozyme variant] | 0.733 | 0.881 | 0.706 | 0.628 | 0.725 | 0.599
2 | AAGUUUGCUAAUCGUCGCAAU [Fam3.1 aminoacylation ribozyme variant] | 1.3 | 0.833 | 1.39 | 1.3 | 1.04 | 1.03
3 | AAGUUUGCUAAUCGUCGCGAG [Fam3.1 aminoacylation ribozyme variant] | 1.01 | 1.8 | 1.04 | 1.27 | 1.36 | 1.49
4 | AAGUUUGCUAAUCGUCGCUAG [Fam3.1 aminoacylation ribozyme variant] | 0.834 | 1.07 | 0.976 | 0.844 | 0.87 | 0.871
5 | AAGUUUGCUAAUCGUCGUAAG [Fam3.1 aminoacylation ribozyme variant] | 0.947 | 6.16 | 0.808 | 0.85 | 0.75 | 2.06
6 | AAGUUUGCUAAUGGUAGCAAG [Fam3.1 aminoacylation ribozyme variant] | 0.994 | 1.12 | 1.02 | 0.976 | 0.692 | 0.649
7 | AAGUUUGCUAAUGGUCCCAAG [Fam3.1 aminoacylation ribozyme variant] | 1 | 1.11 | 0.977 | 0.976 | 0.908 | 1.21
8 | AAGUUUGCUAAUUGUCGCCAG [Fam3.1 aminoacylation ribozyme variant] | 1.39 | 5.34 | 1.49 | 1.53 | 1.49 | 1.73
9 | AAGUUUGCUAAUUGUCGCGAG [Fam3.1 aminoacylation ribozyme variant] | 1.68 | 17.4 | 2.04 | 1.75 | 2.02 | 2.7
10 | AAGUUUGCUAAUUGUGGCAAG [Fam3.1 aminoacylation ribozyme variant] | 0.817 | 0.701 | 0.735 | 0.688 | 0.988 | 0.773
11 | AAGUUUGCUACUAGUCGCAUG [Fam3.1 aminoacylation ribozyme variant] | 1.09 | 1.11 | 0.915 | 0.717 | 0.707 | 0.836
12 | AAGUUUGCUAGUAGUCACAAG [Fam3.1 aminoacylation ribozyme variant] | 1.08 | 1.37 | 1.05 | 1.43 | 0.962 | 0.986
13 | AAGUUUGCUAGUAGUCGCAGG [Fam3.1 aminoacylation ribozyme variant] | 0.799 | 2.48 | 0.89 | 1.02 | 0.956 | 1.05
14 | AAGUUUGCUAGUUGUCGCAAG [Fam3.1 aminoacylation ribozyme variant] | 1.08 | 3.68 | 1.07 | 0.898 | 1.16 | 1.18
15 | AAGUUUGCUAUGAGUCGCAAG [Fam3.1 aminoacylation ribozyme variant] | 0.974 | 0.664 | 0.692 | 0.644 | 0.778 | 0.54
16 | AAGUUUGCUAUUAGUCGCAAA [Fam3.1 aminoacylation ribozyme variant] | 1.35 | 1.58 | 1.52 | 1.84 | 1.47 | 1.74
17 | AAGUUUGCUAUUGGUCGCAAG [Fam3.1 aminoacylation ribozyme variant] | 0.76 | 1.46 | 0.787 | 0.756 | 1.05 | 0.66
18 | AAGUUUGCUCAAAGUCGCAAG [Fam3.1 aminoacylation ribozyme variant] | 0.877 | 2.29 | 1.24 | 1.37 | 0.974 | 1.13
19 | AAGUUUGCUCAUAGUCCCAAG [Fam3.1 aminoacylation ribozyme variant] | 1.06 | 1.29 | 0.902 | 0.856 | 0.902 | 0.793
20 | AAGUUUGCUCAUAGUCGCAUG [Fam3.1 aminoacylation ribozyme variant] | 1.04 | 0.909 | 1.05 | 0.893 | 0.903 | 0.856
21 | AAGUUUGCUCAUAGUCUCAAG [Fam3.1 aminoacylation ribozyme variant] | 0.901 | 1.98 | 0.872 | 0.869 | 0.977 | 0.98
22 | AAGUUUGCUCUUAGUCGCAAG [Fam3.1 aminoacylation ribozyme variant] | 0.813 | 1.53 | 0.73 | 0.758 | 0.786 | 0.65
23 | AAGUUUGCUGAUACUCGCAAG [Fam3.1 aminoacylation ribozyme variant] | 0.897 | 0.915 | 1.11 | 0.744 | 0.885 | 1.07
24 | AAGUUUGCUGAUAGGCGCAAG [Fam3.1 aminoacylation ribozyme variant] | 0.765 | 2.19 | 0.732 | 1.26 | 0.707 | 0.544
25 | AAGUUUGCUGAUAGUCGGAAG [Fam3.1 aminoacylation ribozyme variant] | 0.838 | 0.837 | 0.72 | 0.933 | 0.849 | 0.832
26 | AAGUUUGCUGAUAGUCUCAAG [Fam3.1 aminoacylation ribozyme variant] | 1.13 | 1.94 | 1.11 | 1.01 | 0.963 | 1.28

Reference: the supplement of paper PMC9233669
